In patent US6627739:

Legend:
[1] = target: MBP-C125sw fusion protein [MBP: P0AEX9]
[2] = target: Swedish mutant APP (βAPP 751 sw) expressed from pohCK751 in 293T cells, P05067
[3] = target: wild-type APP (βAPP 751) expressed from pohCK751 in 293T cells, P05067
Chain of wild-type APP (βAPP 751) expressed from pohCK751 in 293T cells, P05067 (P05067 whole entry, looked up): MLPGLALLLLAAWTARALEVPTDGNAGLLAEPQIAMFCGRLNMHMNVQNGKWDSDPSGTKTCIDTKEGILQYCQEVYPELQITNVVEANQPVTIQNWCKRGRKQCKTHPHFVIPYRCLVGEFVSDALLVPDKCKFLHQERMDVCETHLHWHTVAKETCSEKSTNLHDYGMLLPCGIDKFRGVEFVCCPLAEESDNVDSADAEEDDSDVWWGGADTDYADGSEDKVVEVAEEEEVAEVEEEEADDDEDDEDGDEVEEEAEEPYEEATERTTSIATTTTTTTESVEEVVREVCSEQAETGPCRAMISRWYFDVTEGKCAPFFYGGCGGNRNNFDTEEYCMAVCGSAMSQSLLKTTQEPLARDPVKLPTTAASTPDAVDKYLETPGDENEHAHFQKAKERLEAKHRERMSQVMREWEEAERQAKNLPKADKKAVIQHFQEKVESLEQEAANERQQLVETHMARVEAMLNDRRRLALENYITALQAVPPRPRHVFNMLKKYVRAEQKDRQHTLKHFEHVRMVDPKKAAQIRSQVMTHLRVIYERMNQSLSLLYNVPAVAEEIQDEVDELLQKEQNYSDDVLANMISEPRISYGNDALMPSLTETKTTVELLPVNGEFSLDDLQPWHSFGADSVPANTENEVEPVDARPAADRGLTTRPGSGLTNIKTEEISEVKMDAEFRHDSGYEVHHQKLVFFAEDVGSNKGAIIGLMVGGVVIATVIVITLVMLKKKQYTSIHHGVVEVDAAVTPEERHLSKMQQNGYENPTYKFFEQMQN

Chain of Swedish mutant APP (βAPP 751 sw) expressed from pohCK751 in 293T cells, P05067 (P05067 whole entry, looked up, change not shown): as the sequence (P05067 whole entry, looked up) above

B1: FLp501, full length recombinant β-secretase having a C-terminal flag sequence (protein)
chain: ETDEEPEEPGRRGSFVEMVDNLRGKSGQGYYVEMTVGSPPQTLNILVDTGSSNFAVGAAPHPFLHRYYQRQLSSTYRDLRKGVYVPYTQGKWEGELGTDLVSIPHGPNVTVRANIAAITESDKFFINGSNWEGILGLAYAEIARPDDSLEPFFDSLVKQTHVPNLFSLQLCGAGFPLNQSEVLASVGGSMIIGGIDHSLYTGSLWYTPIRREWYYEVIIVRVEINGQDLKMDCKEYNYDKSIVDSGTTNLRLPKKVFEAAVKSIKAASSTEKFPDGFWLGEQLVCWQAGTTPWNIFPVISLYLMGEVTNQSFRITILPQQYLRPVEDVATSQDDCYKFAISQSSTGTVMGAVIMEGFYVVFDRARKRIGFAVSACHVHDEFRTAAVEGPFVTLDMEDCGYNIPQTDESTLMTIAYVMAAICALFMLPLCLMVCQWRCLRCLRQQHDDFADDISLLKYKDDDDK
B1 was tested, and the cleavage of substrate [1] was “Both enzymes exhibited activity in cleaving β-secretase substrates such as MBP-C125”.

B2: 452stop, recombinant β-secretase truncated at position 452 (1-452) (protein)
chain: ETDEEPEEPGRRGSFVEMVDNLRGKSGQGYYVEMTVGSPPQTLNILVDTGSSNFAVGAAPHPFLHRYYQRQLSSTYRDLRKGVYVPYTQGKWEGELGTDLVSIPHGPNVTVRANIAAITESDKFFINGSNWEGILGLAYAEIARPDDSLEPFFDSLVKQTHVPNLFSLQLCGAGFPLNQSEVLASVGGSMIIGGIDHSLYTGSLWYTPIRREWYYEVIIVRVEINGQDLKMDCKEYNYDKSIVDSGTTNLRLPKKVFEAAVKSIKAASSTEKFPDGFWLGEQLVCWQAGTTPWNIFPVISLYLMGEVTNQSFRITILPQQYLRPVEDVATSQDDCYKFAISQSSTGTVMGAVIMEGFYVVFDRARKRIGFAVSACHVHDEFRTAAVEGPFVTLDMEDCGYNIPQTDEYKDDDDK
With B2 the cleavage of substrate [1] was “The C-terminal truncated form of the enzyme exhibited activity in leaving the MBP-C125sw substrate as well as the P26-P4′ substrate”.

B3: recombinant full-length human β-secretase (1-501) expressed from pCEK clone 27 / pCFβA2 in 293T or Cos A2 cells (protein)
chain: ETDEEPEEPGRRGSFVEMVDNLRGKSGQGYYVEMTVGSPPQTLNILVDTGSSNFAVGAAPHPFLHRYYQRQLSSTYRDLRKGVYVPYTQGKWEGELGTDLVSIPHGPNVTVRANIAAITESDKFFINGSNWEGILGLAYAEIARPDDSLEPFFDSLVKQTHVPNLFSLQLCGAGFPLNQSEVLASVGGSMIIGGIDHSLYTGSLWYTPIRREWYYEVIIVRVEINGQDLKMDCKEYNYDKSIVDSGTTNLRLPKKVFEAAVKSIKAASSTEKFPDGFWLGEQLVCWQAGTTPWNIFPVISLYLMGEVTNQSFRITILPQQYLRPVEDVATSQDDCYKFAISQSSTGTVMGAVIMEGFYVVFDRARKRIGFAVSACHVHDEFRTAAVEGPFVTLDMEDCGYNIPQTDESTLMTIAYVMAAICALFMLPLCLMVCQWRCLRCLRQQHDDFADDISLLK
For B3, the “Aβ(x-40) production, ELISA of conditioned media” value [2] was “approximate 2-fold increase in Aβ(x-40)” and the “Aβ(x-40) production, ELISA of conditioned media” value [3] was “approximately 8-fold increase in Aβ(x-40) production”.

B4: naturally occurring human β-secretase purified from human brain (protein)
chain: ETDEEPEEPGRRGSFVEMVDNLRGKSGQGYYVEMTVGSPPQTLNILVDTGSSNFAVGAAPHPFLHRYYQRQLSSTYRDLRKGVYVPYTQGKWEGELGTDLVSIPHGPNVTVRANIAAITESDKFFINGSNWEGILGLAYAEIARPDDSLEPFFDSLVKQTHVPNLFSLQLCGAGFPLNQSEVLASVGGSMIIGGIDHSLYTGSLWYTPIRREWYYEVIIVRVEINGQDLKMDCKEYNYDKSIVDSGTTNLRLPKKVFEAAVKSIKAASSTEKFPDGFWLGEQLVCWQAGTTPWNIFPVISLYLMGEVTNQSFRITILPQQYLRPVEDVATSQDDCYKFAISQSSTGTVMGAVIMEGFYVVFDRARKRIGFAVSACHVHDEFRTAAVEGPFVTLDMEDCGYNIPQTDESTLMTIAYVMAAICALFMLPLCLMVCQWRCLRCLRQQHDDFADDISLLK
With B4 the Specific Activity (MBP-C125 sw assay), Anion Exchange Pool (nM/h/µg prot.) [1] was 1.49e+06.
